Substrate in the series: Nc1ncnc2c1ncn2[C@@H]1O[C@H](COP(=O)(O)OP(=O)(O)OP(=O)(O)O)[C@@H](O)[C@H]1O
Nature of the series: single-molecule magnetic trapping, stalled RNAP dissociation lifetime versus [ATP]. Format: biochemical, Escherichia coli. As to conditions: saturating RapA, RNAP stalled at +20 on positively supercoiled DNA, 0.3 pN, 200 μM GTP and UTP, 8 mM MgCl2, pH 8.0, 34°C, kcat is RNAP dissociation rate at saturating RapA and ATP, not ATP hydrolysis.

The values below come from PMC9303389, “On the stability of stalled RNA polymerase and its removal by RapA” (Nucleic Acids Research, 2022).

The Km is the substrate concentration at which the rate is half of its maximum.

B1: RapA-RNAP complex (Escherichia coli K-12) (protein)
chain: PFTLGQRWISDTESELGLGTVVAVDARTVTLLFPSTGENRLYARSDSPVTRVMFNPGDTITSHDGWQMQVEEVKEENGLLTYIGTRLDTEESGVALREVFLDSKLVFSKPQDRLFAGQIDRMDRFALRYRARKYSSEQFRMPYSGLRGQRTSLIPHQLNIAHDVGRRHAPRVLLADEVGLGKTIEAGMILHQQLLSGAAERVLIIVPETLQHQWLVEMLRRFNLRFALFDDERYAEAQHDAYNPFDTEQLVICSLDFARRSKQRLEHLCEAEWDLLVVDEAHHLVWSEDAPSREYQAIEQLAEHVPGVLLLTATPEQLGMESHFARLRLLDPNRFHDFAQFVEEQKNYRPVADAVAMLLAGNKLSNDELNMLGEMIGEQDIEPLLQAANSDSEDAQSARQELVSMLMDRHGTSRVLFRNTRNGVKGFPKRELHTIKLPLPTQYQTAIKVSGIMGARKSAEDRARDMLYPERIYQEFEGDNATWWNFDPRVEWLMGYLTSHRSQKVLVICAKAATALQLEQVLREREGIRAAVFHEGMSIIERDRAAAWFAEEDTGAQVLLCSEIGSEGRNFQFASHMVMFDLPFNPDLLEQRIGRLDRIGQAHDIQIHVPYLEKTAQSVLVRWYHEGLDAFEHTCPTGRTIYDSVYNDLINYLASPDQTEGFDDLIKNCREQHEALKAQLEQGRDRLLEIHSNGGEKAQALAESIEEQDDDTNLIAFAMNLFDIIGINQDDRGDNMIVLTPSDHMLVPDFPGLSEDGITITFDREVALAREDAQFITWEHPLIRNGLDLILSGDTGSSTISLLKNKALPVGTLLVELIYVVEAQAPKQLQLNRFLPPTPVRMLLDKNGNNLAAQVEFETFNRQLNAVNRHTGSKLVNAVQQDVHAILQLGEAQIEKSARALIDAARNEADEKLSAELSRLEALRAVNPNIRDDELTAIESNRQQVMESLDQAGWRLDALRLIVVTHQ
notes: full-length RapA, N-terminal His6 tag (pQE80L, expressed in BL21(DE3)), 110 kDa; RNAP core saturated with sigma70 (rpoD) for initiation, then stalled as elongation complex on DNA; with DNA-directed RNA polymerase subunit alpha; DNA-directed RNA polymerase subunit beta; DNA-directed RNA polymerase subunit beta'; DNA-directed RNA polymerase subunit omega
On to B1, for which the Km stood at 160 ± 35 µM and the kcat was 1.1 × 10^–3 ± 0.5 × 10^–5 s^–1.
